# B1: MMP-1 shRNA: Vector-expressed small hairpin RNA, SEQ ID NO:1 (sense) and SEQ ID NO:2 (antisense), specific to bases 234-252 of MMP-1 mRNA (nucleic acid)
# sense: GATCCCCACCAGATGCTGAAACCCTGTTCAAGAGACAGGGTTTCAGCATCTGGTTTTTTGGAAA
# antisense: AGCTTTTCCAAAAAACCAGATGCTGAAACCCTGTCTCTTGAACAGGGTTTCAGCATCTGGTGGG
# modifications: the letters are possibly those of the target site
# Legend:
# [1] = system: MDA-231 cells in type I collagen gel; experiment: In vitro collagen gel destruction assay; format: cell-based; settings: MDA-231 cells producing the shRNA
# Method: In vitro Collagen Gel Destruction Assay. Collagen preparations were carried out on ice to prevent premature jelling. A solution of purified type I bovine collagen (Cohesion Technologies, Palo Alto, Calif.) was neutralized with a sterile 10× phosphate-buffered saline (pH 7.4), and 0.1 M NaOH. The solution of neutralized collagen (2 mg/mL) was mixed with an equivalent volume of cells suspended in serum free DMEM to yield a final concentration of 2×10^5 cells/mL in 1 mg/mL fibrillar collagen, and 1 mL of the collagen/cell mixture was added to each well of a six-well plate. After approximately 1 hour, the collagen jelled, and 1 mL of serum-free media was added on top of the gel. For some experiments, 25 μM ILOMASTAT® (CHEMICON®, Temecula, Calif.), 50 U/mL aprotinin (Sigma, St. Louis, Mo.), 1 μg/mL neutralizing MMP-1 antibody (MMP-1 ab-5; ONCOGENE™ Research Products, San Diego, Calif.), 1 μg/mL monoclonal FLAG® antibody (Sigma, St. Louis, Mo.), or 1% DMSO were added to the collagen before it jelled. After 36 hours of incubation at 37° C. the medium was removed from the top of collagen gels and weighed. The weight of media added at the start of the 37° C. incubation (1 gram) was subtracted from the total media weights to reveal the amount of media liberated by collagen gel destruction.
# An in vitro collagen destruction assay was developed to determine whether the MMP-1 levels in MDA-231 cells with the empty vector were functionally capable of degrading a collagen matrix, and whether the shRNA-mediated reduction in MMP-1 was sufficient to change the invasive behavior of the cells. MDA-231 cells harboring either the empty vector or the MMP-1 shRNA were embedded in a solution of type I collagen (1 mL). The collagen was allowed to solidify at 37° C., and 1 mL of serum-free medium was layered on top of each gel. After 36 hours at 37° C., the medium was removed from each well and photographs were taken. No collagen was visible in wells containing MDA-231 cells with the empty vector. […] The medium removed from each well was weighed to quantitate the amount of medium liberated as the gel was destroyed. After 36 hours, approximately 1 mL (0.8±0.06 grams) of medium was liberated from the collagen gels containing the MDA-231 cells with the empty vector. […] Conversely, no medium (−0.01±0.03 grams) was liberated from collagen gels containing MDA-231 cells producing the MMP-1 shRNA. The slight decrease in the volume of medium recovered may be due to evaporation of the medium during the incubation period.
# MMP-1 mRNA = MMP-1 mRNA by qRT-PCR in stably transfected MDA-231 cell lines; format: cell-based, human; settings: for Copies of MMP-1 mRNA per pg GAPDH mRNA: average ± S.D.
# Method: Transfection of NIH/3T3 and MDA-231 Cells. NIH/3T3 cells were transiently transfected with LIPOFECTAMINE™ 2000 (INVITROGEN™, Carlsbad, Calif.) along with 0.5 μg peGFP, 0.5 μg pCMV-MMP-1, and 2 μg PSUPER™-MMP-1 shRNA or PSUPER™ with no insert. Transfection efficiency was monitored using eGFP signal. Total cellular RNA was harvested 48 hours after transfection and analyzed for MMP-1 mRNA by real-time RT-PCR. MDA-231 cells were stably transfected in triplicate with LIPOFECTAMINE™ 2000 (INVITROGEN™, Carlsbad, Calif.) and 2 μg of the PSUPER™.Retro.Neo.GFP plasmid containing the MMP-1 shRNA, the scrambled sequence or just the empty vector. Stable cell lines were selected by growth in the presence of 1 mg/mL G418 (STRATAGENE®, La Jolla, Calif.). Individual, stable cell lines were isolated with cloning disks according to the manufacturer's instructions (PGC Scientifics, Frederick, Md.).
# RNA Isolation and Real-Time RT-PCR.
# After initial neomycin selection and isolation of individual stable cell lines, MMP-1 mRNA and protein levels were determined using quantitative RT-PCR (qRT-PCR) and ELISA. MMP-1 mRNA levels were measured in RNA harvested from stably transfected cell lines after a 24 hour incubation in serum-free medium and were normalized to GAPDH mRNA levels. MMP-1 protein levels were measured in the serum-free media of the cell lines after 24 hours of incubation and were normalized to total protein content of the cells. The ELISA measured total (active and zymogen) forms of MMP-1 protein. […] To control for differences introduced into the cell lines during selection, these three individual cell lines for each group were pooled, and all subsequent experiments were performed on pooled cells.
# MDA-231 cells = experiment: Tumorigenesis studies in nude mice, mammary fat pad injection of MDA-231 cells; format: in vivo
# Method: Tumorigenesis Studies in Mice. Pooled MDA-231 stable cell lines containing either the empty vector or the MMP-1 shRNA (1×10^6 cells/100 μL HBSS) were injected into the 4th inguinal fat pad of twenty-one female, 6-week-old nude mice (NU/NU; Charles River Laboratories, Wilmington, Mass.) using 28 gauge×½″ single-use insulin needles. Mice were examined weekly until tumors were grossly apparent, then they were examined several times per week. Each tumor was measured twice with Vernier calipers, and tumor volume was calculated using the formula: 4/3πr^3. When the two measurements differed, the smaller radius measurement was squared and multiplied by the largest radius measurement. This number was then substituted for the r^3 portion of the formula.
# The in vivo efficacy of the shRNA-mediated reduction of MMP-1 in the MDA-231 cells was analyzed. Nude mice were injected in the fourth inguinal mammary fat pad with MDA-231 cells containing either the empty vector or the MMP-1 shRNA. At week 6, tumors began to appear in the inguinal pad of several mice and at week 11, the mice were sacrificed.
molecule,measurement,setting,value
B1,appearance of collagen gel,[1]; 36 hours,appeared to be intact
same,medium liberated from collagen gels,[1]; 36 hours at 37° C.,−0.01±0.03 grams
same,collagen gel destruction,[1]; as long as five days,no collagen gel destruction
same,Copies of MMP-1 mRNA per pg GAPDH mRNA,"MMP-1 mRNA; Group of cell lines D1, Y2, Y7, P=0.004 vs empty vector",6200 ± 3200 copies per pg GAPDH mRNA
same,Copies of MMP-1 mRNA per pg GAPDH mRNA,MMP-1 mRNA; MDA-231 cell line D1,8900 ± 3600 copies per pg GAPDH mRNA
same,Copies of MMP-1 mRNA per pg GAPDH mRNA,MMP-1 mRNA; MDA-231 cell line Y2,4600 ± 2500 copies per pg GAPDH mRNA
same,Copies of MMP-1 mRNA per pg GAPDH mRNA,MMP-1 mRNA; MDA-231 cell line Y7,5000 ± 2400 copies per pg GAPDH mRNA
same,reduction in MMP-1 mRNA levels compared to empty vector cell lines,"MMP-1 mRNA; three stable MDA-231 cell lines, 24 hour serum-free",greater than 90%
same,average tumor size at time of sacrifice,"MDA-231 cells; week 11, mean±s.e., n=10, p=0.027 vs empty vector",272±117 mm^3
same,frequency of tumor formation,"MDA-231 cells; week 11, n=23, p=0.11 vs empty vector (57%), Fisher's exact test",36%
